In general, stoichiometry N refers to a count of units in the complex or per binding partner. For orientation: Kd means the concentration at which binding is half-saturated. A lower Kd goes with higher affinity.

Consider six molecules from PMC11101478, “Structural mechanism of bacteriophage lambda tail’s interaction with the bacterial receptor” (Nature Communications, 2024).

B2: gpL (bacteriophage lambda, in the purified tail) (natural protein)
chain: MQDIRQETLNECTRAEQSASVVLWEIDLTEVGGERYFFCNEQNEKGEPVTWQGRQYQPYPIQGSGFELNGKGTSTRPTLTVSNLYGMVTGMAEDMQSLVGGTVVRRKVYARFLDAVNFVNGNSYADPEQEVISRWRIEQCSELSAVSASFVLSTPTETDGAVFPGRIMLANTCTWTYRGDECGYSGPAVADEYDQPTSDITKDKCSKCLSGCKFRNNVGNFGGFLSINKLSQ
notes: gpL of bacteriophage lambda; consists of HDI and 4Fe-4S domains; Three units in the tail tip; also called baseplate hub protein; source: E. coli BL21 (DE3) pLysS, as part of the purified lambda tail
B5: gpJ (bacteriophage lambda tip protein, in the purified tail) (natural protein)
chain: MGKGSSKGHTPREAKDNLKSTQLLSVIDAISEGPIEGPVDGLKSVLLNSTPVLDTEGNTNISGVTVVFRAGEQEQTPPEGFESSGSETVLGTEVKYDTPITRTITSANIDRLRFTFGVQALVETTSKGDRNPSEVRLLVQIQRNGGWVTEKDITIKGKTTSQYLASVVMGNLPPRPFNIRMRRMTPDSTTDQLQNKTLWSSYTEIIDVKQCYPNTALVGVQVDSEQFGSQQVSRNYHLRGRILQVPSNYNPQTRQYSGIWDGTFKPAYSNNMAWCLWDMLTHPRYGMGKRLGAADVDKWALYVIGQYCDQSVPDGFGGTEPRITCNAYLTTQRKAWDVLSDFCSAMRCMPVWNGQTLTFVQDRPSDKTWTYNRSNVVMPDDGAPFRYSFSALKDRHNAVEVNWIDPNNGWETATELVEDTQAIARYGRNVTKMDAFGCTSRGQAHRAGLWLIKTELLETQTVDFSVGAEGLRHVPGDVIEICDDDYAGISTGGRVLAVNSQTRTLTLDREITLPSSGTALISLVDGSGNPVSVEVQSVTDGVKVKVSRVPDGVAEYSVWELKLPTLRQRLFRCVSIRENDDGTYAITAVQHVPEKEAIVDNGAHFDGEQSGTVNGVTPPAVQHLTAEVTADSGEYQVLARWDTPKVVKGVSFLLRLTVTADDGSERLVSTARTTETTYRFTQLALGNYRLTVRAVNAWGQQGDPASVSFRIAAPAAPSRIELTPGYFQITATPHLAVYDPTVQFEFWFSEKQIADIRQVETSTRYLGTALYWIAASINIKPGHDYYFYIRSVNTVGKSAFVEAVGRASDDAEGYLDFFKGKITESHLGKELLEKVELTEDNASRLEEFSKEWKDASDKWNAMWAVKIEQTKDGKHYVAGIGLSMEDTEEGKLSQFLVAANRIAFIDPANGNETPMFVAQGNQIFMNDVFLKRLTAPTITSGGNPPAFSLTPDGKLTAKNADISGSVNANSGTLSNVTIAENCTINGTLRAEKIVGDIVKAASAAFPRQRESSVDWPSGTRTVTVTDDHPFDRQIVVLPLTFRGSKRTVSGRTTYSMCYLKVLMNGAVIYDGAANEAVQVFSRIVDMPAGRGNVILTFTLTSTRHSADIPPYTFASDVQVMVIKKQALGISVV
notes: Tip protein gpJ of bacteriophage lambda, 1132 residues: hub domains (HDII-ins1, HDII-ins2, HDII, HDIII, HDIV, OB), FNIII-1, FNIII-2, AHS, CSF, RBD; also called baseplate hub protein; central tail fiber protein; source: E. coli BL21 (DE3) pLysS, as part of the purified lambda tail

Series [1] concerns the target B5. Briefly: cryo-EM structure; purified lambda tail mixed with ssLamB in MSP2N2 nanodisc, room temperature 50 min, nickel column and Superose 6 Increase; open state of the tail. As to conditions: both partners purified.
Series [2] concerns the molecule itself. The description is as above.
Series [3] deals with the molecule itself. Briefly: cryo-EM structure; gpJ713 alone, closed state; C3 symmetry; map at 2.76 A.
In a further series the target is T1, E. coli LamB A384S (E. coli, UniProt P02943 26-446, A384S).
T1 construct: LamB (maltoporin) of E. coli with the single-point mutation A384S; the text says A384S; also called ecLamB A384S; source: E. coli BL21 (DE3), isolated from the outer membrane in DDM, purified (Strep-Tactin XT, gel filtration); not shown: Twin-Strep-tag, N-terminal, kept
Briefly: BLI; His-tagged gpJ713 (2 ug/mL) captured on Ni-NTA sensors; five concentrations of Twin-Strep-tagged LamB in lysis buffer with 0.02% DDM; dissociation in the same buffer. As to conditions: both partners purified. In general terms: In BLI a coated tip is dipped into the sample, and binding shifts an interference pattern.

In another series the target is T2, E. coli LamB (E. coli, UniProt P02943 26-446).
T2 construct: LamB (maltoporin) of E. coli; own N-terminal signal peptide replaced by the OMPG signal peptide, Twin-Strep-tag after the signal peptide; also called ecLamB; E. coli's LamB; source: E. coli BL21 (DE3), isolated from the outer membrane in DDM, purified (Strep-Tactin XT, gel filtration); not shown: Twin-Strep-tag, N-terminal, kept
The description is as above. As to conditions: both partners purified.

The target of series [4] is B2. Description: cryo-EM structure; purified lambda tail mixed with ssLamB in MSP2N2 nanodisc, room temperature 50 min, nickel column and Superose 6 Increase; open state of the tail. As to conditions: both partners purified.

B1: gpI (bacteriophage lambda, in the purified tail) (natural protein)
chain: MAATHTLPLASPGMARICLYGDLQRFGRRIDLRVKTGAEAIRALATQLPAFRQKLSDGWYQVRIAGRDVSTSGLTAQLHETLPDGAVIHIVPRVAGAKSGGVFQIVLGAAAIAGSFFTAGATLAAWGAAIGAGGMTGILFSLGASMVLGGVAQMLAPKARTPRIQTTDNGKQNTYFSSLDNMVAQGNVLPVLYGEMRVGSRVVSQEISTADEGDGGQVVVIGR
notes: gpI of bacteriophage lambda: unresolved N-terminal domain, helices H1 and H2, plug domain (159-175), beta-strands joined by loops; in the open structure only residues from 167 onward are seen; Three units in the tail tip; source: E. coli BL21 (DE3) pLysS, as part of the purified lambda tail
On to B1, for which the binding result in series [1] is “binds”.

For the molecule B2, the binding result in series [1] is reported as “binds”.

B3: Shigella sonnei 3070 LamB (receptor, UniProt Q3YUU9 26-446, looked up)
chain: VDFHGYARSGIGWTGSGGEQQCFQTTGAQSKYRLGNECETYAELKLGQEVWKEGDKSFYFDTNVAYSVAQQNDWEATDPAFREANVQGKNLIEWLPGSTIWAGKRFYQRHDVHMIDFYYWDISGPGAGLENIDVGFGKLSLAATRSSEAGGSSSFASNNIYDYTNETANDVFDVRLAQMEINPGGTLELGVDYGRANLRDNYRLVDGASKDGWLFTAEHTQSVLKGFNKFVVQYATDSMTSQGKGLSQGSGVAFDNEKFAYNINNNGHMLRILDHGAISMGDNWDMMYVGMYQDINWDNDNGTKWWTVGIRPMYKWTPIMSTVMEIGYDNVESQRTGDKNNQYKITLAQQWQAGDSIWSRPAIRVFATYAKWDEKWGYDYNGDSKVNPNYGKAVPADFNGGSFGRGDSDEWTFGAQMEIWW
notes: LamB (maltoporin) of Shigella sonnei 3070; own N-terminal signal peptide replaced by the OMPG signal peptide, Twin-Strep-tag after the signal peptide; differs from E. coli LamB in seven amino acids within the 381-390 region; Used in 0.02% DDM for BLI and for the gpJ713 complex, and in an MSP2N2 nanodisc (E. coli polar lipids) for the tail complex; also called ssLamB; LamB from Shigella sonnei …
Take B3: the “stoichiometry N” value in series [2] worked out at 3.

B4: gpJ713 (C-terminal truncation of bacteriophage lambda gpJ, starting from residue 713) (domain or fragment, UniProt P03749 713-1132, looked up)
chain: APAAPSRIELTPGYFQITATPHLAVYDPTVQFEFWFSEKQIADIRQVETSTRYLGTALYWIAASINIKPGHDYYFYIRSVNTVGKSAFVEAVGRASDDAEGYLDFFKGKITESHLGKELLEKVELTEDNASRLEEFSKEWKDASDKWNAMWAVKIEQTKDGKHYVAGIGLSMEDTEEGKLSQFLVAANRIAFIDPANGNETPMFVAQGNQIFMNDVFLKRLTAPTITSGGNPPAFSLTPDGKLTAKNADISGSVNANSGTLSNVTIAENCTINGTLRAEKIVGDIVKAASAAFPRQRESSVDWPSGTRTVTVTDDHPFDRQIVVLPLTFRGSKRTVSGRTTYSMCYLKVLMNGAVIYDGAANEAVQVFSRIVDMPAGRGNVILTFTLTSTRHSADIPPYTFASDVQVMVIKKQALGISVV
notes: holds FNIIIs, AHS, CSF and RBD; Trimer (C3 symmetry in the closed state map); also called central tail fiber; His-tagged gpJ713; source: E. coli BL21 (DE3), purified (nickel gravity column, gel filtration); not shown: 6xHis, N-terminal, kept
With B4, in series [3], the “stoichiometry N” value came out at 3. In the series with E. coli LamB A384S, the binding result is listed as “binds”. The Kd in the series with E. coli LamB was found to be 1.76 nM.

As for B5, the “stoichiometry N” value in series [2] was found to be 3.

B6: gpM (bacteriophage lambda tail protein, in the purified tail) (natural protein)
chain: MKTFRWKVKPGMDVASVPSVRKVRFGDGYSQRAPAGLNANLKTYSVTLSVPREEATVLESFLEEHGGWKSFLWTPPYEWRQIKVTCAKWSSRVSMLRVEFSAEFEQVVN
notes: Tail protein gpM of bacteriophage lambda; also called gpM ring; gpM hexamer; source: E. coli BL21 (DE3) pLysS, as part of the purified lambda tail
On to B6, for which the binding result in series [1] and in series [4] was “binds” throughout. In addition, the “stoichiometry N” value in series [2] was 6.
